The source of these data is patent US20110293610A1 (published 2011).

Assay [1] addresses T1, HIS-tagged B Lymphocyte Stimulator (human, UniProt Q9Y275 71-285).
T1 construct: Expressed in E. coli; also called HIS-B Lymphocyte Stimulator; histidine-tagged B Lymphocyte Stimulator; not shown: histidine tag from the pQE9 vector
Description: BIAcore, purified scFv over low density HIS-BLyS surface. Here is the method: The chip containing the low density HIS-B Lymphocyte Stimulator surface was inserted into the BIAcore. […] The dilution series was then injected sequentially over the blank control (flow cell 1) and low density HIS-B Lymphocyte Stimulator surface (flow cell 2) using the following program: […]
A general note: Surface plasmon resonance follows binding to a sensor surface in real time, without labels.

Assay [2] addresses T2, membrane-bound B Lymphocyte Stimulator on U937 plasma membrane preparations (human, UniProt Q9Y275 1-285).
T2 construct: Natural protein in plasma membrane fractions of the human cell line U937 coated on ELISA plates; also called U937 plasma membranes; U937 membranes
The experiment in a line: phage ELISA. (ELISA stands for enzyme-linked immunosorbent assay.)

The target in assay [3] is T3, mouse B Lymphocyte Stimulator (mouse, UniProt Q9WU72 127-309, limits assumed).
T3 construct: also called murine B Lymphocyte Stimulator; immobilized mouse B Lymphocyte Stimulator
Description: phage ELISA.

Another assay concerns the target T4, TNF-alpha (human, UniProt P01375 77-233).
T4 construct: also called TNFα; TNF-α
Description: phage ELISA.

The target of another assay is T5, TNF-beta (human, UniProt P01374 35-205).
T5 construct: also called TNFβ; Tumour Necrosis Factor-beta
T5 sequence (looked up): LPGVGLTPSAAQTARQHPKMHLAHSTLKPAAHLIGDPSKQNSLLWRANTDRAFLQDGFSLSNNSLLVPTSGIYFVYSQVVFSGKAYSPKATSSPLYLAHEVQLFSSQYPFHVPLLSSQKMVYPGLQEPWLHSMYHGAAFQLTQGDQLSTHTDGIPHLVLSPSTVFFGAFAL
The experiment in a line: phage ELISA.

For the next assay, the target named is T6, Fas ligand (human, UniProt P48023 134-281, limits assumed).
T6 sequence (looked up): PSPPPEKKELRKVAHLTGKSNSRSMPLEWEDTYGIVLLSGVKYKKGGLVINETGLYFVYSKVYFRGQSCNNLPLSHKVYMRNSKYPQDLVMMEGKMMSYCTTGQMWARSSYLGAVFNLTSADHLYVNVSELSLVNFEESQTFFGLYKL
The experiment in a line: phage ELISA.

The next assay deals with T7, TRAIL (human, UniProt P50591 114-281).
T7 construct: also called TNF-related apoptosis inducing ligand
The experiment in a line: phage ELISA.

The target in assay [4] is T8, B Lymphocyte Stimulator, soluble form (human) (human, UniProt Q9Y275 134-285, biotinylated with NHS-biotin where used as biotinylated B Lymphocyte Stimulator).
T8 construct: Coated on plastic, captured on streptavidin plates, amine-coupled to a CM5 chip or free in solution, depending on the assay; also called BLyS; immobilized B Lymphocyte Stimulator
Description: phage competition ELISA.

For assay [5], the target named is T8, B Lymphocyte Stimulator, soluble form …. Description: phage ELISA.
The target in the next assay is LIGHT (human, UniProt O43557 74-240, limits assumed). The experiment in a line: phage ELISA.
For another assay, the target named is T9, Bovine serum albumin (bovine, UniProt P02769 25-607).
T9 construct: also called BSA
Description: phage ELISA.

T7 sequence (P50591 114-281 limits assumed): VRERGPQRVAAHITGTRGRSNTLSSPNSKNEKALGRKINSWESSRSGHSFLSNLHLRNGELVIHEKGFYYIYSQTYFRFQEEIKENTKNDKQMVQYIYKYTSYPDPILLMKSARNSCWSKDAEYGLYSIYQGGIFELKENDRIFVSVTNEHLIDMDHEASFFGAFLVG
T9 sequence (P02769 25-607 limits assumed): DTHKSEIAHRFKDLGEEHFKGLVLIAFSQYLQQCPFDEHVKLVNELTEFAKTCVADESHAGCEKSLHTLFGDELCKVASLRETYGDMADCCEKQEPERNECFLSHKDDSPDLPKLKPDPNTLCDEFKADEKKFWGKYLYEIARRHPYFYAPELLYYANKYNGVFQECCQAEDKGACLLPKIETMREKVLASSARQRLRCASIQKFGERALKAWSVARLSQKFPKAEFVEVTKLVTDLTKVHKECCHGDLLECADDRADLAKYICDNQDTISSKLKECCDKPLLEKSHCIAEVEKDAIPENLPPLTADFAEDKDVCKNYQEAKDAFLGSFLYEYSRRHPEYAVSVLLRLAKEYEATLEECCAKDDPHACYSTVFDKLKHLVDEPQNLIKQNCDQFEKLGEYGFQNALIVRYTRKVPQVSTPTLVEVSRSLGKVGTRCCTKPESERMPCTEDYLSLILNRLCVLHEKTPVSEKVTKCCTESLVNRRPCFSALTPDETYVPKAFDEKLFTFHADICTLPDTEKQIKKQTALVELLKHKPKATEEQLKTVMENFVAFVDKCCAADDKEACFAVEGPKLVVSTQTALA
T4 sequence (P01375 77-233 limits assumed): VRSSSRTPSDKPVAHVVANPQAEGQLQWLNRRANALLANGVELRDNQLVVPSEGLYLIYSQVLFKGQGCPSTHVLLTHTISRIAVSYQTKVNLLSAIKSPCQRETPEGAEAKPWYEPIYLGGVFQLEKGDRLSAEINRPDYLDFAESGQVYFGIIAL
T3 sequence (Q9WU72 127-309 limits assumed): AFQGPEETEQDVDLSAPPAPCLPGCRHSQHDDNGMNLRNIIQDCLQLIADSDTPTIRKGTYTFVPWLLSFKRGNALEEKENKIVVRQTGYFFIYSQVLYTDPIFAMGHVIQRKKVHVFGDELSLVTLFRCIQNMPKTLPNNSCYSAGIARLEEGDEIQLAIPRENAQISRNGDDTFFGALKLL
LIGHT, sequence (O43557 74-240 limits assumed): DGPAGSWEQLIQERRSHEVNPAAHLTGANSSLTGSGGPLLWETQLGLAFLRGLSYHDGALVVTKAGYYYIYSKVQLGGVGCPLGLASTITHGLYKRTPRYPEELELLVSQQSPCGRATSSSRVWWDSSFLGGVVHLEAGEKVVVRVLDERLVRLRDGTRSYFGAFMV

B1: I082H08 (scFv)
scFv: EVQLVESGGGLVQPGGSLRLSCAASGFTFSDYGMHWVRQRPGKGLEWIAFIGSDGSNKYYGDTVKGRFTISRDNAKNSLYLQMNSLRAEGTAVYYCARDWDMDVWGQGTMVTVSSGGGGSGGGGSGGGGSSHVILTQPRSVSGSPGQSVTISCTGTSSDVGGYHYVSWYQQHPGKAPRLMIYEVTKRPSGVSNRFSGSKSGNTASLTISGVQAEDEADYYCSSYTSASTVIFGGGTKLTVLG
As usually defined, the Kd is the constant that tells how readily two partners part at equilibrium. B1: the affinity in [1], expressed as Kd, was 1 nM.

B2: I099D03 (scFv)
scFv: QVQLVQSGAEVKKPGASVRVSCKSSGYTFTNYGISWVRQAPGQGLEWMGWISNNNGKTYYAQKVQGRVTMTTDTSTSTDYMELRGLRSDDTAIYYCARDNGGGTIGFDYWGRGTLVTVSSGGGGSGGGGSGGGGSAQAVLTQPSSVSGAPGQRVTMSCTGSSSNIGAGYDVHWYQQLPGTAPKLLIYDNTNRPSGVPDRFSGSRSGTSASLAITGLQAEDEADYFCQSYDITLSAVFGTGTKVTVLG
Take B2: binding in [1] was characterised by a dissociation constant (Kd) of 4 nM.

B3: I008C03 (scFv)
scFv: QMQLVRSGGGVVQPGRSLRLSCAASGFTFSSYGMHWVRQAPGKGLEWVSVTYSGGNTNYADSVRGRFTISRDNSKNTLYLQMNSLRAEDTAVYYCAREGSYDILTGYYVGVGRMDVWGKGTLVTVSSGGGGSGGGGSGGGGSSELTQDPAVSVALGQTVRITCQGDSLRSYYTNWFQQKPGQAPLLVVYAKNKRPSGIPDRFSGSSSGNTASLTITGAQAEDEADYYCNSRDSSGNHVVFGGGTKLTVLG
Consider B3, for which the binding result in assay [2] is “binds”; in assay [3] it was “no binding”; with TNF-alpha it was “no binding”; with TNF-beta it was “no binding”; with Fas ligand, “no binding”; with TRAIL, “no binding”. For the same molecule, the binding result in assay [4] is recorded as “binds”.

B4: I079E02 (scFv)
scFv: QVQLVQSGAEVKKPGSSVKVSCKASGGTFSSYAISWVRQAPGQGLEWMGGIIPIFGTANYAQKFQGRVTITADKSTSTAYMELSSLRSDDTAVYYCARDSGSYYYDAFDIWGKGTMVTVSSGGGGSGGGGSGGGGSDIVMTQSPSTLSASVGDRVTITCRASQGISSWLAWYQQKPGKAPKLLIYAASSLQSGVPSRFSGSGSGTDFTLTISSLQPEDFATYYCQQANSFPLTFGGGTKVEIKR
Take B4: the dissociation constant (Kd) in [1] came to 10 nM.

B5: I037E07 (scFv)
scFv: QVQLVQSGAEVKKPGASVKVSCKASGYTFTNYGITWVRQAPGQGLEWMGWISAYNGNRNYAQKLQGRVTMTTDTSTSTAYMELRSLRSDDTAVYYCVRDGIDILLVPAALMDVWGRGTMVTVSSGGGGSGGGGSGGGGSQSVLTQPASVSGSPGQSITISCTGTSSDVGGYNYVSWYQQHPGKAPKLMIYEGSKRPSGVSNRFSGSKSGNTASLTISGLQAEDEADYYCSSYTTRSTRVFGGGTKLTVLG
Consider B5, for which the binding result in assay [2] was “binds”; in [3], “no binding”; in the assay with TNF-alpha it was “no binding”; with TNF-beta, “no binding”; in the assay with Fas ligand, “no binding”; in the assay with TRAIL, “no binding”. In addition, the binding result in assay [4] was “binds”.

B6: I037E12 (scFv)
scFv: EVQLVQSGAEVKKPGASVKVSCKASGYTFTNYGITWVRQAPGQGLEWMGWISAYNGNRNYAQKLQGRVTMTTDTSTSTAYMELRSLRSDDTAVYYCVRDGIDILLVPAALMDVWGKGTLVTVSSGGGGSGGGGSGGGGSQSVLTQPASVSGSPGQSITISCTGTSSDVGGYNYVSWYQQHPGKAPKLMIYEGNKRPSGVSNRFSGSKSGNTASLTISGLQAEDEADYYCSSYTTRSTRVFGGGTKLTVLG
As to B6, the binding result was “binds” in [2]; “no binding” in assay [3]; “no binding” in the assay with TNF-alpha; “no binding” in the assay with TNF-beta; “no binding” in the assay with Fas ligand; “no binding” with TRAIL. Besides, the binding result in assay [4] was “binds”.

B7: I075A02 (scFv)
scFv: QVQLVQSGAEVKKPGSSVKVSCRASGGSFNHAISWVRQAPGRGLEWMGGILPMYGTANYAQKFQGRVTITADKLTNTVYMDLSRLRYEDTAVYYCARELGLSIVGATTGALDMWGRGTLVTVSSGGGGSGGGGSGGGGSAQSVVTQPPSASGTPGQRVTVSCSGGRSNIGSNTVSWYQQLPGTAPKLLIYSNDERPSGVPDRFSGSNSGTSASLAISGLQSEDEADYYCAAWDDSLNGVAFGGGTKLTVLG
Consider B7, for which the binding result is given as “binds” in assay [5]; “no binding” with LIGHT; “no binding” with Bovine serum albumin; “no binding” with TNF-alpha; “no binding” with TNF-beta; “no binding” with TRAIL.

B8: I006E07 (scFv)
scFv: QVQLQQSGAEEKKPGASVKVSCKASGYTFTSYAMHWVRQAPGQRLEWMGWINAGNGNTKYSQKFQGRVAITRDTSASTAYMELSSLRSEDTAVYYCARADYDILTGYSPLTYGMDVWGRGTLVTVSSGGGGSGGGGSGGGGSDIQMTQSPSTLSASIGDRVTITCRASEGIYHWLAWYQQKPGKAPKLLIYKASSLASGAPSRFSGSGSGTDFTLTISSLQPDDFATYYCQQYSNYPLTFGGGTKLEIKR
B8: the binding result in [5] was “binds”; with Bovine serum albumin, “no binding”; in assay [2], “binds”; in the assay with TNF-alpha, “no binding”.

B9: I008D05 (scFv)
scFv: GVQLVQSGAEVKKPGSSVKISCKASGVTFNDYAFSWVRQAPGQGLEWVGGIIPKFGKAKYAQKFQGRLTISGDKSTSTAYMELRSLTSDDTAVYYCARATYDPLTGYSFDGFDIWGQGTMVTVSSGGGGSGGGGSGGGGSQSVLTQPASVSGSPGQSITISCTGTSSDVGGYNYVSWYQQHPGKAPKLMIYEGSKRPSGVSNRFSGSKSGNPASLTISGLQAEDEADYYCSSYTTRSTRVFGGGTKLTVLG
notes: also called 1008D05
In the case of B9, the binding result is recorded as “binds” in [5], “no binding” in the assay with Bovine serum albumin, “binds” in assay [2] and “no binding” with TNF-alpha.

B10: I016F04 (scFv)
scFv: QVQLQQSGSELKKPGASVKVSCKVSGYSLTKMSMHWVRQSPGEGLEWVGGIDPETRQPVYAQKFQGRVTITKDTSASAAYMELSSLGSEDTALYYCARATYDPLTGYSFDGFDIWGQGTLVTVSSGGGGSGGGGSGGGGSQSVLTQPASVSGSPGQSITISCTGTSSDVGGYNYVSWYQQHPGKAPKLMIYEGSKRPSGVSNRFSGSKSGNTASLTISGLQAEDEADYYCSSYTTRSTRVFGGGTKLTVLG
On to B10, for which the binding result in the assay with Bovine serum albumin is “no binding”; in assay [2] it was “binds”; in the assay with TNF-alpha, “no binding”; in the assay with Fas ligand, “no binding”; in the assay with TRAIL, “no binding”; in assay [4], “binds”.

B11: I079F11 (scFv)
scFv: QVQLVQSGGGLVKPGGSLRLSCAASGFTFSSYSMNWVRQAPGKGLEWVAVVSSDGGNKYYADSVKGRFTISRDNSKNTVYLQMNSLRADDTAVYYCAKTGSGFDYWGRGTLVTVSSGGGGSGGGGSGGGGSDIQMTQSPSTLSASIGDRVTITCRASEGIYHWLAWYQQKPGKAPKLLIYKASSLASGAPSRFSGSGSGTDFTLTISSLQPDDFATYYCQQYSNYPLTFGGGTKLEIKR
B11: the Kd in [1] came out at 5 nM.

B12: I082G02 (scFv)
scFv: KVQLVESGGGVVQPGRSLRLSCVTSGFTFSSYGMHWVRQAPGKGLEWVAGISYDGAKEYYGDPVKGRFTISRDNTKKTLNLQMNSLRAEDTAVYYCARDGYRTNDALDIWGQGTLATVSSGGGGSGGGGSGGGGSDIQMTQSPSTLSASIGDRVTITCRASEGIYHWLAWYQQKPGKAPKLLIYKASSLASGAPSRFSGSGSGTDFTLTISSLQPDDFATYYCQQYSNYPLTFGGGTKLEIKR
Turning to B12, the Kd in assay [1] turned out to be 6 nM.
